Laboratory results reported in publication PMC11074299, “Deciphering DED assembly mechanisms in FADD-procaspase-8-cFLIP complexes regulating apoptosis” (Nature Communications, 2024).
Changes are numbered by the printed parent chain. Names and notes keep the numbering of the source.

B1: full-length FADD H9G mutant (FADD^FuL_H9G) (natural protein)
chain: MDPFLVLLGSVSSSLSSSELTELKFLCLGRVGKRKLERVQSGLDLFSMLLEQNDLEPGHTELLRELLASLRRHDLLRRVDDFEAGAAAGAAPGEEDLCAAFNVICDNVGKDWRRLARQLKVSDTKIDSIEDRYPRNLTERVRESLRIWKNTEKENATVAHLVGALRSCQMNLVADLVQEVQQARDLQNRSGAMSPMSWNSDASTSEAS
notes: Fas-associated protein with death domain (FADD), human, full length, H9G; only the DED is visible in the crystal structure (FADD DD not visible); A selenomethionine-substituted complex was also made for phasing (PDB 8YD7); also called FADD^DED molecule FAl; source: E. coli BL21-CodonPlus, co-purified in the ternary complex (Ni-NTA, SEC); not shown: 6xHis, C-terminal, kept
B2: wild-type full-length FADD (FADD^FuL) (natural protein, human, UniProt Q13158 1-208, looked up)
chain: B1 chain with G9H
notes: Fas-associated protein with death domain (FADD), human, wild type, full length; only the DED is visible in the cryo-EM maps; also called FA^FuL; WT FADD; source: E. coli BL21-CodonPlus; co-purified in the ternary complex (Ni-NTA, SEC); also in precipitates of overexpressed proteins resuspended in water; not shown: 6xHis, C-terminal, kept
B3: Casp-8^tDED_F122G/L123G mutant (domain or fragment, human, UniProt Q14790 1-185, looked up)
chain: MDFSRNLYDIGEQLDSEDLASLKFLSLDYIPQRKQEPIKDALMLFQRLQEKRMLEESNLSFLKELLFRINRLDLLITYLNTRKEEMERELQTPGRAQISAYRVMLYQISEEVSRSELRSFKGGLQEEISKCKLDDDMNLLDIFIEMEKRVILGEGKLDILKRVCAQINKSLLKIINDYEEFSKER
notes: procaspase-8 (Casp-8) tandem DED, human, residues 1-185, F122G/L123G (FGLG) in the FL motif of DED2; The methods name no tag for this protein; also called C8^FGLG; source: E. coli BL21-CodonPlus; co-purified in the ternary complex (Ni-NTA, SEC); also purified alone by SEC
B4: Casp-8^tDED F122A mutant (Casp-8^tDED_F122A) (domain or fragment, human, UniProt Q14790 1-185, looked up)
chain: B3 chain with G122A, G123L
notes: source: E. coli, co-expressed with CF^H7G, SEC
B5: full-length Casp-8 mutant F122G/L123G/C360A/D374A/D384A (natural protein, human, UniProt Q14790 1-479, looked up)
chain: MDFSRNLYDIGEQLDSEDLASLKFLSLDYIPQRKQEPIKDALMLFQRLQEKRMLEESNLSFLKELLFRINRLDLLITYLNTRKEEMERELQTPGRAQISAYRVMLYQISEEVSRSELRSFKGGLQEEISKCKLDDDMNLLDIFIEMEKRVILGEGKLDILKRVCAQINKSLLKIINDYEEFSKERSSSLEGSPDEFSNGEELCGVMTISDSPREQDSESQTLDKVYQMKSKPRGYCLIINNHNFAKAREKVPKLHSIRDRNGTHLDAGALTTTFEELHFEIKPHDDCTVEQIYEILKIYQLMDHSNMDCFICCILSHGDKGIIYGTDGQEAPIYELTSQFTGLKCPSLAGKPKVFFIQAAQGDNYQKGIPVETASEEQPYLEMALSSPQTRYIPDEADFLLGMATVNNCVSYRNPAEGTWYIQSLCQSLRERCPRGDDILTILTEVNYEVSNKDDKKNMGKQMPQPTFTLRKKLVFPSD
notes: procaspase-8 (Casp-8), human, full length with FGLG mutations, catalytic inactivity and processing deficiencies; only the tDED is visible in the cryo-EM maps (protease domain not visible); The methods name E. coli BL21-CodonPlus only for FADD, the Casp-8 tDED mutant and cFLIP tDED; also called Casp-8^tDED molecules C8a, C8b, C8c (triple-FADD complex)

Assays:
[1] = target: cFLIP^tDED H7G mutant (human, UniProt O15519 1-181, H7G); assay: crystal structure; FA^FuL_H9G-C8^FGLG-CF^H7G complex; proteins individually expressed in E. coli, complex co-purified by Ni-NTA and SEC (80 mM NaCl, 20 mM Tris pH 8.0); hanging drop, 20 °C; MR-SAD; 3.1 Å; one 1:5:4 complex per asymmetric unit; FADD DD not visible; details: both partners purified
[2] = target: B5; assay: cryo-EM structure; FA^FuL-C8^FuL_FGLG_CADA-CF complex; Complex A without cross-linking (7.5 Å) and Complex B stabilised by GraFix, glutaraldehyde (3.7 Å); Casp-8 protease domain and FADD DD not visible; details: both partners purified
[3] = target: B2; assay: negative-stain EM; C8^FGLG purified by SEC, in the presence of WT FADD with a C-terminal His-tag; FADD detected by Ni-NTA Nanogold; SDS-PAGE of the EM sample; details: both partners purified
[4] = target: B1; assay: crystal structure; FA^FuL_H9G-C8^FGLG-CF^H7G complex; proteins individually expressed in E. coli, complex co-purified by Ni-NTA and SEC (80 mM NaCl, 20 mM Tris pH 8.0); hanging drop, 20 °C; MR-SAD; 3.1 Å; one 1:5:4 complex per asymmetric unit; FADD DD not visible; details: both partners purified
[5] = target: the molecule itself; assay: SEC + other: negative-stain EM; Casp-8^tDED_F122A and CF^H7G co-expressed; SEC profile, negative-stain EM and SDS-PAGE of the peak fractions
[6] = target: wild-type cFLIP^tDED (human, UniProt O15519 1-181); assay: cryo-EM structure; FA^FuL-C8^FuL_FGLG_CADA-CF complex; Complex A without cross-linking (7.5 Å) and Complex B stabilised by GraFix, glutaraldehyde (3.7 Å); Casp-8 protease domain and FADD DD not visible; details: both partners purified
[7] = target: the molecule itself; assay: as above

Q: Does B1 bind [1]?
A: binds

Q: Does B2 bind [2]?
A: binds

Q: What does the source list for B3?
A: binding result [3]: binds; binding result [4]: binds; binding result [1]: binds

Q: Does B4 bind [5]?
A: binds

Q: Which results are given for B5?
A: binding result [6]: binds; stoichiometry N [7]: 3
